Earlier results in publication doi:10.1101/2024.09.05.611512.

Experiments:
[1] = biological target: S100A10 (Homo sapiens) (UniProt P60903)
[2] = biological target: calpain 1 & 2 (Homo sapiens) (UniProt P07384)
Chain of UniProt P07384 (P07384 2-714): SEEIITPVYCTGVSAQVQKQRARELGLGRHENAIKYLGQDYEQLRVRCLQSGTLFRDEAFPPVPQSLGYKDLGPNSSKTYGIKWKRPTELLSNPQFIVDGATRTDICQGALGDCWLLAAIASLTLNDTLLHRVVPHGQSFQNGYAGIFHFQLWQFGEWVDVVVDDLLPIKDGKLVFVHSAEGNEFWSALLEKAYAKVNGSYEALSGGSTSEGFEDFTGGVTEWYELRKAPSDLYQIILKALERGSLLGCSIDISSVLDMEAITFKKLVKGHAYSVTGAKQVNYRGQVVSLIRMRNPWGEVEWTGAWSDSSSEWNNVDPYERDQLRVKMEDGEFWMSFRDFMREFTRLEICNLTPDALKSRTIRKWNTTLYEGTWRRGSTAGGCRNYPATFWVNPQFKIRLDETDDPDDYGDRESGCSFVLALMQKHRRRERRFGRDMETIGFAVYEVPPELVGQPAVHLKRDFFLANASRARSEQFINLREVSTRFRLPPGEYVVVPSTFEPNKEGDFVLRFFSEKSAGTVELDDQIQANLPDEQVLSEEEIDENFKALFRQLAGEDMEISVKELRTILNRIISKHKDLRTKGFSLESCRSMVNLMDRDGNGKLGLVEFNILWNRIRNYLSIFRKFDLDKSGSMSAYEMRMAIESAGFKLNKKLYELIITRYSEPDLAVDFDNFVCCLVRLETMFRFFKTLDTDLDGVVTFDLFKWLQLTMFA

Chain of UniProt P60903 (P60903 whole entry): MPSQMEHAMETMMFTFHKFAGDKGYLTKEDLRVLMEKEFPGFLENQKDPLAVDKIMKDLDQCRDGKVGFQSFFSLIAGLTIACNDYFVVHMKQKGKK

Row | Kd [1] [nM] | Ki [2] [nM] | Substance
1 | 13 |  | annexin A2 first 10-12 residues (from UniProt P07355)
2 |  | 15 | calpastatin domain I (from UniProt P20810)
